Laboratory results: article PMC11276004

Key:
[1] = target: YPet (Yellow fluorescent Protein for energy transfer); experiment: SEC-SAXS; synchrotron SAXS in line with SEC; 260 μM YPet or 230 μM mCLIFY injected, PBS, room temperature; SVD-EFA, mass from Qr and Porod
[2] = target: YPet (Yellow fluorescent Protein for energy transfer); experiment: SEC-MALS; in line with SAXS; 100 μl of 260 μM YPet or 230 μM mCLIFY injected, Shodex 804 column, PBS, room temperature; 53 μM (YPet) and 48 μM (mCLIFY) at peak
[3] = target: YPet (Yellow fluorescent Protein for energy transfer); experiment: AUC; sedimentation velocity on cleared bacterial lysates of expressing cultures, detection at 515 nm; 4.6 μM YPet in 14.3 mg/mL lysate, 6.2 μM mCLIFY in 13.7 mg/ml lysate
[4] = target: YPet (Yellow fluorescent Protein for energy transfer); experiment: AUC; sedimentation velocity, purified protein, 20 °C, PBS, 2-40 μM monomer, 40,000 rpm; c(s) fits in SEDFIT; monomer-dimer association model in SEDPHAT; constant is of dimer to monomers

Substance: YPet (Yellow fluorescent Protein for energy transfer)
- stoichiometry N [1]: 2
- stoichiometry N [2]: 2
- stoichiometry N [3]: 2
- Kd [4]: 3.4 µM
- stoichiometry N [4]: 2
